From US5175251A, “Antimetastatic peptides with laminin activity” (SRI International, priority 1991, dated 1992)

Experiments:
[1] = system: B16/F10 cells (murine melanoma); assay: Cell adhesion assay: tumor cells bound to peptide-coated wells; type: cell-based; settings: summary of Table 1
Description: The cell-adhesion assay measures the binding of tumor cells to laminin immobilized on the surface of a culture dish. The peptides of the invention can be substituted for the immobilized laminin to measure the binding constants of the peptides and compare binding constants of the peptides of the invention with laminin or other known laminin peptides. In this assay, solubilized peptides are incubated on tissue culture well plates and nonspecific cell binding is blocked by the addition of bovine serum albumin (BSA). Tumor cells are added to the wells and nonadherent cells are removed by washing with phosphate-buffered saline (PBS). Attached cells may be trypsinized and counted electronically or the cells may be fixed, stained with chemical agents, such as crystal violet solution and the optical density of the solutions determined using a microtiter plate reader in the range from 590-405 nm. Extrapolation of OD to the number of cells bound may be obtained by comparison of readings to a standard curve obtained by incubating various numbers of cells in tissue culture wells for a time sufficient to allow firm attachment but not permit significant cell division (about 5 h), and washing and staining as above. […]

[2] = Isoelectric point; type: physicochemical
Source text: The anion exchange resin is usually employed in the form of a packed column. The column is equilibrated using conventional techniques and the solution of the cleaved reaction products is loaded onto the column. […] The peptide is eluted by increasing the ionic strength of the buffered solution, typically from 0 to 0.75M NaCl. The column can be regenerated by washing with solutions of NaOH and nonionic detergents to remove any residual contaminating protein or solubilizing agents and equilibrating the column.
For example, when the laminin B1 peptide is fused to CTAP-III(Leu21), an anion exchange column (for example, either Mono-Q or Q Sepharose from Pharmacia) may be employed to separate the two proteins on the basis of differences in their isoelectric points (LamB1 -40(Ser27) peptide=3.65, CTAP-III=7.8). […] Elution of the peptide may be performed with a linear gradient (0 to 0.5M) of NaCl. Pooled fractions of LamB1 -40, typically greater than 90% pure, may optionally be subjected to further purification using hydrophobic interaction chromatography (HIC), gel filtration chromatography, reverse-phase liquid chromatography or combinations thereof.

Molecule | Binding of metastatic tumor cells compared with YIGSR or CDPGYIGSR [1] | isoelectric point (pI) [2]
NH2 -Pro-Cys-Pro-Asp-Gly-Pro-Asp-Ser-Gly-Arg-Gln-Phe-Ala-Arg-Ser-Cys-Tyr -Gln-Asp-Pro-Val-Thr-Leu-Gln-Leu-Ala-Ser-Val-Cys-Asp-Pro-Gly-Tyr-Ile-Gly-Ser-Arg-Cys-Asp-Asp-OH (H-PCPDGPDSGRQFARSCYQDPVTLQLASVCDPGYIGSRCDD-OH; cysteine pairing not given here) [LamB1 -40(Ser27), recombinant 40 amino acid laminin B1 peptide, Cys at position 923 replaced with serine] | binds metastatic tumor cells more effectively | 3.65
CTAP-III: naturally occurring polypeptide isolated from human platelets that is capable of activating connective tissue cells (protein, UniProt P02775 44-128, looked up, Connective tissue-activating peptide III) Connective tissue-activating …: NLAKGKEESLDSDLYAELRCMCIKTTSGIHPKNIQSLEVIGKGTHCNQVEVIATLKDGRKICLDPDAPRIKKIVQKKLAGDESAD |  | 7.8
